Target: T1, RegX3 (K204A) K204A (UniProt P9WGL9)
T1 sequence: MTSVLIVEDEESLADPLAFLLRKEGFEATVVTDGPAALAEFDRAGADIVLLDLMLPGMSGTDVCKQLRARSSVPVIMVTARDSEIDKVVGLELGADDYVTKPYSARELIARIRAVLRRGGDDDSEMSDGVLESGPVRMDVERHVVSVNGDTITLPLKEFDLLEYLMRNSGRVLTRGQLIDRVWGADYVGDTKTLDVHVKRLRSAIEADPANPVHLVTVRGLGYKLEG
Assay: EMSA

Sequence: CAGCTTTCTTTGCGCTAATTTAGGCGTACTCACAGCATGGGATGACCTGGGCAAATACCTCATCTATCCGCCCGGGATAGCATGCGGCGCAGGCGGCGAATGCGGCGCAGATGAACGCAGAGTTAATTCTCACGCAACGGTCCGATATTG (double strand) [whiB3 promoter -307 to -157 (WT)]
- binding: no binding

From publication PMC7525159
